Molecular target: human haemoglobin (human)
Experiment: ITC; MicroCal iTC200; 250 μM TcHpHbR titrated into 18 μM Hb, 20 injections of 2 μl; 20 mM HEPES pH 7.5, 150 mM NaCl, 25°C

## T. congolense haptoglobin-haemoglobin receptor (TcHpHbR), recombinant, as used in gel filtration and ITC
  Kd: 3 nM
  stoichiometry N (receptors per Hb tetramer): 2
